Earlier results, collected in patent US20210196801A1, “Starting Dose of PTH Conjugates” (Ascendis Pharma Bone Diseases A/S, priority 2018, published 2021).
Read-outs that look alike come from different tables or passages of the source.

Legend:
[1] = not given; remark: listed apart in the source

Row | Molecule | half-life (IV) | half-life (after subcutaneous administration) | half-life ([1]; after IV administration) | half-life ([1]; after subcutaneous administration, due to prolonged absorption)
1 | Natpara: PTH(1-84), approved for once-daily subcutaneous injection in patients with hypoparathyroidism | about 5 minutes | about 3 hours | – | –
2 | CC[C@H](C)[C@H](NC(=O)[C@H](CCC(=O)O)NC(=O)[C@H](CO)NC(=O)[C@@H](NC(=O)[C@@H](N)CO)C(C)C)C(=O)N[C@@H](CCC(N)=O)C(=O)N[C@@H](CC(C)C)C(=O)N[C@@H](CCSC)C(=O)N[C@@H](Cc1cnc[nH]1)C(=O)N[C@@H](CC(N)=O)C(=O)N[C@@H](CC(C)C)C(=O)NCC(=O)N[C@@H](CCCCN)C(=O)N[C@@H](Cc1cnc[nH]1)C(=O)N[C@@H](CC(C)C)C(=O)N[C@@H](CC(N)=O)C(=O)N[C@@H](CO)C(=O)N[C@@H](CCSC)C(=O)N[C@@H](CCC(=O)O)C(=O)N[C@@H](CCCN=C(N)N)C(=O)N[C@H](C(=O)N[C@@H](CCC(=O)O)C(=O)N[C@@H](Cc1c[nH]c2ccccc12)C(=O)N[C@@H](CC(C)C)C(=O)N[C@@H](CCCN=C(N)N)C(=O)N[C@@H](CCCCN)C(=O)N[C@@H](CCCCN)C(=O)N[C@@H](CC(C)C)C(=O)N[C@@H](CCC(N)=O)C(=O)N[C@@H](CC(=O)O)C(=O)N[C@H](C(=O)N[C@@H](Cc1cnc[nH]1)C(=O)N[C@@H](CC(N)=O)C(=O)N[C@@H](Cc1ccccc1)C(=O)O)C(C)C)C(C)C [Teriparatide] | – | – | about 5 minutes | ~1 h
